Assay results: article PMC2817471
Where two headings read alike, the source gives them in different places.

T1: XPD (Sulfolobus acidocaldarius, UniProt Q4JC68 1-551)
T1 sequence: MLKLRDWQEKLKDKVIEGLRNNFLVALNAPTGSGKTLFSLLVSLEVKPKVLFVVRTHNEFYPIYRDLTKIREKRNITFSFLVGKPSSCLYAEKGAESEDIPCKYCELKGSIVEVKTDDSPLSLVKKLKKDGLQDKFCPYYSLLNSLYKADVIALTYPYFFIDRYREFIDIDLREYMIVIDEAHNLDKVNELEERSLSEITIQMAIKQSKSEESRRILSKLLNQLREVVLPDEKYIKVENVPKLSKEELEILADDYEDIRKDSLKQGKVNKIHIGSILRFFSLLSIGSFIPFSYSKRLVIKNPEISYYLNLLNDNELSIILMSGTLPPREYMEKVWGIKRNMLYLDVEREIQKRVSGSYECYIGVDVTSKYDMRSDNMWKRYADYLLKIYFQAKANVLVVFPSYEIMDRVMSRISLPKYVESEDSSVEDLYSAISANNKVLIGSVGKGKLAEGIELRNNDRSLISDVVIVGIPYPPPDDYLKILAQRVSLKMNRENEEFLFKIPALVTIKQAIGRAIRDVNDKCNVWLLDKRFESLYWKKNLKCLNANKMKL


How the values were obtained:
XPD [1] = biological target: T1, XPD; experiment: ITC
XPD [2] = biological target: T1, XPD; experiment: ITC; remark: listed apart in the source

Binder	Kd (XPD [1])	Kd (XPD [2])
TTTTTTTT (ssDNA) [ITC-T8]	> 40 µM	–
TTTTTTTTTTTT (ssDNA) [ITC-T12]	–	5.6 µM
